The results in this text go back to article PMC4648099.

The series has as its target thrombin (alpha-thrombin) (UniProt P00734+P00734). The series is described as follows: competition (FAM fluorescence displacement). As to conditions: G8 replaced by 5-nitroindole (N at position 8); Fluorescence assays: 10 mM sodium cacodylate pH 7.2, 100 mM KCl, 20 °C, 20 nM FAM-aptamer (100 nM thrombin in displacement); EMSA: 1xTBE pH 8.3, 100 mM KCl ….

Where “and” joins values, the source holds several entries; their conditions need not be identical. Equal entries are not always repeated.

Usually Kd stands for the equilibrium constant for the complex coming apart. Regarding GGTTGGTNTGGTTGG [TBA-N8], the Kd is 2.3 nM and 1.7 nM.
